Measurements: patent US20130202609
Numbering of substitutions follows the chain as printed. In names and notes the source's numbering stands.

B1: wild-type GAS57 (Spy0416), recombinant, purified from E. coli (protein)
chain 1: ADELSTMSEPTITNHAQQQAQHLTNTELSSAESKSQDTSQITLKTNREKEQSQDLVSEPTTTELADTDAASMANTGSDATQKSASLPPVNTDVHDWVKTKGAWDKGYKGQGKVVAVIDTGIDPAHQSMRISDVSTAKVKSKEDMLARQKAAGINYGSWINDKVVFAHNYVENSDNIKENQFEDFDEDWENFEFDAEAEPKAIKKHKIYRPQ
chain 2: STQAPKETVIKTEETDGSHDIDWTQTDDDTKYESHGMHVTGIVAGNSKEAAATGERFLGIAPEAQVMFMRVFANDIMGSAESLFIKAIEDAVALGADVINLSLGTANGAQLSGSKPLMEAIEKAKKAGVSVVVAAGNERVYGSDHDDPLATNPDYGLVGSPSTGRTPTSVAAINSKWVIQRLMTVKELENRADLNHGKAIYSESVDFKDIKDSLGYDKSHQFAYVKESTDAGYNAQDVKGKIALIERDPNKTYDEMIALAKKHGALGVLIFNNKPGQSNRSMRLTANGMGIPSAFISHEFGKAMSQLNGNGTGSLEFDSVVSKAPSQKGNEMNHFSNWGLTSDGYLKPDITAPGGDIYSTYNDNHYGSQTGTSMASPQIAGASLLVKQYLEKTQPNLPKEKIADIVKNLLMSNAQIHVNPETKTTTSPRQQGAGLLNIDGAVTSGLYVTGKDNYGSISLGNITDTMTFDVTVHNLSNKDKTLRYDTELLTDHVDPQKGRFTLTSHSLKTYQGGEVTVPANGKVTVRVTMDVSQFTKELTKQMPNGYYLEGFVRFRDSQDDQLNRVNIPFVGFKGQFENLAVAEESIYRLKSQGKTGFYFDESGPKDDIYVGKHFTGLVTLGSETNVSTKTISDNGLHTLGTFKNADGKFILEKNAQGNPVLAISPNGDNNQDFAAFKGVFLRKYQGLKASVYHASDKEHKNPLWVSPESFKGDKNFNSDIRFAKSTTLLGTAFSGKSLTGAELPDGHYHYVVSYYPDVVGAKRQEMTFDMILDRQKPVLSQATFDPETNRFKPEPLKDRGLAGVRKDSVFYLERKDNKPYTVTINDSYKYVSVEDNKTFVERQADGSFILPLDKAKLGDFYYMVEDFAGNVAIAKLGDHLPQTLGKTPIKLKLTDGNYQTKETLKDNLEMTQSDTGLVTNQAQLAVVHRNQPQSQLTKMNQDFFISPNEDGNKDFVAFKGLKNNVYNDLTVNVYAKDDHQKQTPIWSSQAGASVSAIESTAWYGITARGSKVMPGDYQYVVTYRDEHGKEHQKQYTISVNDKKPMITQGRFDTINGVDHFTPDKTKALDSSGIVREEVFYLAKKNGRKFDVTEGKDGITVSDNKVYIPKNPDGSYTISKRDGVTLSDYYYLVEDRAGNVSFATLRDLKAVGKDKAVVNFGLDLPVPEDKQIVNFTYLVRDADGKPIENLEYYNNSGNSLILPYGKYTVELLTYDTNAAKLESDKIVSFTLSADNNFQQVTFKITMLATSQITAHFDHLLPEGSRVSLKTAQDQLIPLEQSLYVPKAYGKTVQEGTYEVVVSLPKGYRIEGNTKVNTLPNEVHELSLRLVKVGDASDSTGDHKVMSKNNSQALTASATPT
B2: GAS57 mutant D151A, His-tagged (protein)
chain: ADELSTMSEPTITNHAQQQAQHLTNTELSSAESKSQDTSQITLKTNREKEQSQDLVSEPTTTELADTDAASMANTGSDATQKSASLPPVNTDVHDWVKTKGAWDKGYKGQGKVVAVIATGIDPAHQSMRISDVSTAKVKSKEDMLARQKAAGINYGSWINDKVVFAHNYVENSDNIKENQFEDFDEDWENFEFDAEAEPKAIKKHKIYRPQSTQAPKETVIKTEETDGSHDIDWTQTDDDTKYESHGMHVTGIVAGNSKEAAATGERFLGIAPEAQVMFMRVFANDIMGSAESLFIKAIEDAVALGADVINLSLGTANGAQLSGSKPLMEAIEKAKKAGVSVVVAAGNERVYGSDHDDPLATNPDYGLVGSPSTGRTPTSVAAINSKWVIQRLMTVKELENRADLNHGKAIYSESVDFKDIKDSLGYDKSHQFAYVKESTDAGYNAQDVKGKIALIERDPNKTYDEMIALAKKHGALGVLIFNNKPGQSNRSMRLTANGMGIPSAFISHEFGKAMSQLNGNGTGSLEFDSVVSKAPSQKGNEMNHFSNWGLTSDGYLKPDITAPGGDIYSTYNDNHYGSQTGTSMASPQIAGASLLVKQYLEKTQPNLPKEKIADIVKNLLMSNAQIHVNPETKTTTSPRQQGAGLLNIDGAVTSGLYVTGKDNYGSISLGNITDTMTFDVTVHNLSNKDKTLRYDTELLTDHVDPQKGRFTLTSHSLKTYQGGEVTVPANGKVTVRVTMDVSQFTKELTKQMPNGYYLEGFVRFRDSQDDQLNRVNIPFVGFKGQFENLAVAEESIYRLKSQGKTGFYFDESGPKDDIYVGKHFTGLVTLGSETNVSTKTISDNGLHTLGTFKNADGKFILEKNAQGNPVLAISPNGDNNQDFAAFKGVFLRKYQGLKASVYHASDKEHKNPLWVSPESFKGDKNFNSDIRFAKSTTLLGTAFSGKSLTGAELPDGHYHYVVSYYPDVVGAKRQEMTFDMILDRQKPVLSQATFDPETNRFKPEPLKDRGLAGVRKDSVFYLERKDNKPYTVTINDSYKYVSVEDNKTFVERQADGSFILPLDKAKLGDFYYMVEDFAGNVAIAKLGDHLPQTLGKTPIKLKLTDGNYQTKETLKDNLEMTQSDTGLVTNQAQLAVVHRNQPQSQLTKMNQDFFISPNEDGNKDFVAFKGLKNNVYNDLTVNVYAKDDHQKQTPIWSSQAGASVSAIESTAWYGITARGSKVMPGDYQYVVTYRDEHGKEHQKQYTISVNDKKPMITQGRFDTINGVDHFTPDKTKALDSSGIVREEVFYLAKKNGRKFDVTEGKDGITVSDNKVYIPKNPDGSYTISKRDGVTLSDYYYLVEDRAGNVSFATLRDLKAVGKDKAVVNFGLDLPVPEDKQIVNFTYLVRDADGKPIENLEYYNNSGNSLILPYGKYTVELLTYDTNAAKLESDKIVSFTLSADNNFQQVTFKITMLATSQITAHFDHLLPEGSRVSLKTAQDQLIPLEQSLYVPKAYGKTVQEGTYEVVVSLPKGYRIEGNTKVNTLPNEVHELSLRLVKVGDASDSTGDHKVMSKNNSQALTASATPT
B3: GAS57 mutant S617A, His-tagged (protein)
chain: B2 chain with A118D, S584A
B4: GAS57 double mutant D151A+S617A, His-tagged (protein)
chain: B2 chain with S584A

Molecular target: interleukin-8 (IL-8; CXCL8)

Protein	IL-8 cleavage, SDS-PAGE with silver staining	percentage of uncleaved IL-8, ELISA	uncleaved IL-8 after 24 h incubation, ELISA	IL-8 cleavage, SDS-PAGE with silver staining, 24 hours
B1	Wild-type GAS57 (lanes 2 and 3) released two bands: 8 kDa (active form) and 6 kDa (inactive cleaved IL-8)	wild-type GAS57 almost completely inactivated IL-8 after 8 hours, even at the lower concentration	–	–
B2	the GAS57 D151A mutant released only one band, which corresponded to uncleaved IL-8, as in the control reaction (without enzyme)	no inactivation was observed for IL-8 treated with the mutant enzyme	the mutants release 100% of uncleaved IL-8 after 24 h incubation	–
B3	–	–	the mutants release 100% of uncleaved IL-8 after 24 h incubation	unable to cleave IL-8, even at a 100-fold higher concentration than wild-type GAS57
B4	–	–	the mutants release 100% of uncleaved IL-8 after 24 h incubation	unable to cleave IL-8, even at a 100-fold higher concentration than wild-type GAS57
